Legend:
[1] = tested on: HIV-1 LTR promoter transactivation by HIV-1 Tat; assay: Transactivation assay, HIV-1 LTR luciferase reporter with HIV-1 Tat; assay type: cell-based; details: HEK293 cells co-transfected with pHIV1LTR-Luc, HIV-1 Tat and the human ORF; relative luciferase activity 24 h post-transfection; positive if >=2 or <=0.5 and p<0.05
Excerpt: The plasmids pHIV1LTR-Luc or pHTLV1LTR-Luc containing a luciferase reporter gene under the control of the HIV-1 or HTLV-1 LTR promoters and plasmids expressing either HIV-1 Tat or HTLV-1 Tax and each human ORF found to interact with viral proteins were transfected into 10^4 HEK293 cells using the calcium phosphate method. Twenty-four hours post-transfection, cells were washed three times with PBS, lysed and luciferase activities determined from two independent transfection experiments in triplicate. We computed a paired t-test to assess the difference of the means between samples with and without the human interactor. For a trial to be considered positive, the relative luciferase activities has to be >=2 or <=0.5, and the p-value of the t-test<0.05.
Many HIV/HTLV-human interactions in our data set (130/212) involved the retroviral transactivator proteins HTLV-1 Tax (57/212), HTLV-2 Tax2 (49/212), HIV-1 Tat (10/212) and HIV-2 Tat (14/212). Human proteins interacting with viral transactivators likely influence Tat or Tax transactivation. Expression vectors encoding human ORFs and HIV-1 Tat or HTLV-1 Tax proteins were tested in a transactivation reporter assay against reporter plasmids harboring HIV-1 or HTLV-1 viral promoter sequences cloned upstream of the luciferase reporter gene. In the controls Tat or Tax respectively activated HIV or HTLV LTR-directed gene expression. Co-transfection of interacting human ORFs identified 71 proteins (54% of the 131 human targets in our data set) that regulated HIV (26.7% of targets), HTLV (37.4% of targets) or both (9.9% of targets) LTR promoter activation by Tat or Tax (see Tables 7 and 8; Table 13 below containing quantitative data on the regulation of transactivation). Wherever not expressly specified, constructs used herein were generally made by sub-cloning entry clones from the ORFeome V3.1 into suitable destination vectors.

[2] = tested on: HTLV-1 LTR promoter transactivation by HTLV-1 Tax; assay: Transactivation assay, HTLV-1 LTR luciferase reporter with HTLV-1 Tax; assay type: cell-based; details: HEK293 cells co-transfected with pHTLV1LTR-Luc, HTLV-1 Tax and the human ORF; relative luciferase activity 24 h post-transfection; positive if >=2 or <=0.5 and p<0.05
Excerpt: Twenty-four hours post-transfection, cells were washed three times with PBS, lysed and luciferase activities determined from two independent transfection experiments in triplicate. We computed a paired t-test to assess the difference of the means between samples with and without the human interactor. For a trial to be considered positive, the relative luciferase activities has to be >=2 or <=0.5, and the p-value of the t-test<0.05.
Expression vectors encoding human ORFs and HIV-1 Tat or HTLV-1 Tax proteins were tested in a transactivation reporter assay against reporter plasmids harboring HIV-1 or HTLV-1 viral promoter sequences cloned upstream of the luciferase reporter gene. […] Wherever not expressly specified, constructs used herein were generally made by sub-cloning entry clones from the ORFeome V3.1 into suitable destination vectors.

B1: DLAT: human host interactor protein, Gene ID 1737, expressed from transfected ORF vector (protein)
chain: MWRVCARRAQNVAPWAGLEARWTALQEVPGTPRVTSRSGPAPARRNSVTTGYGGVRALCGWTPSSGATPRNRLLLQLLGSPGRRYYSLPPHQKVPLPSLSPTMQAGTIARWEKKEGDKINEGDLIAEVETDKATVGFESLEECYMAKILVAEGTRDVPIGAIICITVGKPEDIEAFKNYTLDSSAAPTPQAAPAPTPAATASPPTPSAQAPGSSYPPHMQVLLPALSPTMTMGTVQRWEKKVGEKLSEGDLLAEIETDKATIGFEVQEEGYLAKILVPEGTRDVPLGTPLCIIVEKEADISAFADYRPTEVTDLKPQVPPPTPPPVAAVPPTPQPLAPTPSAPCPATPAGPKGRVFVSPLAKKLAVEKGIDLTQVKGTGPDGRITKKDIDSFVPSKVAPAPAAVVPPTGPGMAPVPTGVFTDIPISNIRRVIAQRLMQSKQTIPHYYLSIDVNMGEVLLVRKELNKILEGRSKISVNDFIIKASALACLKVPEANSSWMDTVIRQNHVVDVSVAVSTPAGLITPIVFNAHIKGVETIANDVVSLATKAREGKLQPHEFQGGTFTISNLGMFGIKNFSAIINPPQACILAIGASEDKLVPADNEKGFDVASMMSVTLSCDHRVVDGAVGAQWLAEFRKYLEKPITMLL
HIV_LTR transactiv. [1]: 6.90 fold change

B2: MYEF2: human host interactor protein, Gene ID 50804, expressed from transfected ORF vector (protein)
chain: MADANKAEVPGATGGDSPHLQPAEPPGEPRREPHPAEAEKQQPQHSSSSNGVKMENDESAKEEKSDLKEKSTGSKKANRFHPYSKDKNSGAGEKKGPNRNRVFISNIPYDMKWQAIKDLMREKVGEVTYVELFKDAEGKSRGCGVVEFKDEEFVKKALETMNKYDLSGRPLNIKEDPDGENARRALQRTGGSFPGGHVPDMGSGLMNLPPSILNNPNIPPEVISNLQAGRLGSTIFVANLDFKVGWKKLKEVFSIAGTVKRADIKEDKDGKSRGMGTVTFEQAIEAVQAISMFNGQFLFDRPMHVKMDDKSVPHEEYRSHDGKTPQLPRGLGGIGMGLGPGGQPISASQLNIGGVMGNLGPGGMGMDGPGFGGMNRIGGGIGFGGLEAMNSMGGFGGVGRMGELYRGAMTSSMERDFGRGDIGINQGFGDSFGRLGSAMIGGFAGRIGSSNMGPVGSGISGGMGSMNSVTGGMGMGLDRMSSSFDRMGPGIGAILERSIDMDRGFLSGPMGSGMRERIGSKGNQIFVRNLPFDLTWQKLKEKFSQCGHVMFAEIKMENGKSKGCGTVRFDSPESAEKACRIMNGIKISGREIDVRLDRNA
HTLV_LTR transactiv. [2]: 2.53 fold change

B3: TTC23: human host interactor protein, Gene ID 64927, expressed from transfected ORF vector (protein)
chain: MQESQETHISNHLDEVVAAVSITHRKKFQNKLLQTALFQPPREKLHLCEEKAKSYSNSHEYKQAVHELVRCVALTRICYGDSHWKLAEAHVNLAQGYLQLKGLSLQAKQHAEKARQILANSIVPPYSENTDVFKFSIELFHTMGRALLSLQKFKEAAENLTKAERLSKELLQCGRIIKEEWIEIEARIRLSFAQVYQGQKKSKEALSHYQAALEYVEISKGETSRECVPILRELAGVEQALGLHDVSINHFLQAHLIILSRSPSQVEAADSAHIVAHAAVASGRHEHHDVAEQYFQESMAHLKDSEGMGRTKFLSIQDEFCHFLQMTGQKERATSILRESLEAKVEAFGDFSPEVAETYRLLGGADLAQGNHSGARKKLKKCLQIQTLLYGPQDKRTLATQQAMGMLSTAPKVASKPRQASKAKVAFCTSIPQDTLLGKARPGTTAD
HTLV_LTR transactiv. [2]: 0.21 fold change

B4: RNPS1: human host interactor protein, Gene ID 10921, expressed from transfected ORF vector (protein)
chain: MDLSGVKKKSLLGVKENNKKSSTRAPSPTKRKDRSDEKSKDRSKDKGATKESSEKDRGRDKTRKRRSASSGSSSTRSRSSSTSSSGSSTSTGSSSGSSSSSASSRSGSSSTSRSSSSSSSSGSPSPSRRRHDNRRRSRSKSKPPKRDEKERKRRSPSPKPTKVHIGRLTRNVTKDHIMEIFSTYGKIKMIDMPVERMHPHLSKGYAYVEFENPDEAEKALKHMDGGQIDGQEITATAVLAPWPRPPPRRFSPPRRMLPPPPMWRRSPPRMRRRSRSPRRRSPVRRRSRSPGRRRHRSRSSSNSSR
HTLV_LTR transactiv. [2]: 11.12 fold change

B5: SPG21: human host interactor protein, Gene ID 51324, expressed from transfected ORF vector (protein)
chain: MGEIKVSPDYNWFRGTVPLKKIIVDDDDSKIWSLYDAGPRSIRCPLIFLPPVSGTADVFFRQILALTGWGYRVIALQYPVYWDHLEFCDGFRKLLDHLQLDKVHLFGASLGGFLAQKFAEYTHKSPRVHSLILCNSFSDTSIFNQTWTANSFWLMPAFMLKKIVLGNFSSGPVDPMMADAIDFMVDRLESLGQSELASRLTLNCQNSYVEPHKIRDIPVTIMDVFDQSALSTEAKEEMYKLYPNARRAHLKTGGNFPYLCRSAEVNLYVQIHLLQFHGTKYAAIDPSMVSAEELEVQKGSLGISQEEQ
HTLV_LTR transactiv. [2]: 0.21 fold change

B6: NIF3L1: human host interactor protein, Gene ID 60491, expressed from transfected ORF vector (protein)
chain: MLSSCVRPVPTTVRFVDSLICNSSRSFMDLKALLSSLNDFASLSFAESWDNVGLLVEPSPPHTVNTLFLTNDLTEEVMEEVLQKKADLILSYHPPIFRPMKRITWNTWKERLVIRALENRVGIYSPHTAYDAAPQGVNNWLAKGLGACTSRPIHPSKAPNYPTEGNHRVEFNVNYTQDLDKVMSAVKGIDGVSVTSFSARTGNEEQTRINLNCTQKALMQVVDFLSRNKQLYQKTEILSLEKPLLLHTGMGRLCTLDESVSLATMIDRIKRHLKLSHIRLALGVGRTLESQVKVVALCAGSGSSVLQGVEADLYLTGEMSHHDTLDAASQGINVILCEHSNTERGFLSDLRDMLDSHLENKINIILSETDRDPLQVV
HTLV_LTR transactiv. [2]: 0.39 fold change

B7: MAD1L1: human host interactor protein, Gene ID 8379, expressed from transfected ORF vector (protein)
chain: MEDLGENTMVLSTLRSLNNFISQRVEGGSGLDISTSAPGSLQMQYQQSMQLEERAEQIRSKSHLIQVEREKMQMELSHKRARVELERAASTSARNYEREVDRNQELLTRIRQLQEREAGAEEKMQEQLERNRQCQQNLDAASKRLREKEDSLAQAGETINALKGRISELQWSVMDQEMRVKRLESEKQELQEQLDLQHKKCQEANQKIQELQASQEARADHEQQIKDLEQKLSLQEQDAAIVKNMKSELVRLPRLERELKQLREESAHLREMRETNGLLQEELEGLQRKLGRQEKMQETLVGLELENERLLAKLQSWERLDQTMGLSIRTPEDLSRFVVELQQRELALKDKNSAVTSSARGLEKARQQLQEELRQVSGQLLEERKKRETHEALARRLQKRVLLLTKERDGMRAILGSYDSELTPAEYSPQLTRRMREAEDMVQKVHSHSAEMEAQLSQALEELGGQKQRADMLEMELKMLKSQSSSAEQSFLFSREEADTLRLKVEELEGERSRLEEEKRMLEAQLERRALQGDYDQSRTKVLHMSLNPTSVARQRLREDHSQLQAECERLRGLLRAMERGGTVPADLEAAAASLPSSKEVAELKKQVESAELKNQRLKEVFQTKIQEFRKACYTLTGYQIDITTENQYRLTSLYAEHPGDCLIFKATSPSGSKMQLLETEFSHTVGELIEVHLRRQDSIPAFLSSLTLELFSRQTVA
HTLV_LTR transactiv. [2]: 0.20 fold change

B8: NEFL: human host interactor protein, Gene ID 4747, expressed from transfected ORF vector (protein)
chain: MSSFSYEPYYSTSYKRRYVETPRVHISSVRSGYSTARSAYSSYSAPVSSSLSVRRSYSSSSGSLMPSLENLDLSQVAAISNDLKSIRTQEKAQLQDLNDRFASFIERVHELEQQNKVLEAELLVLRQKHSEPSRFRALYEQEIRDLRLAAEDATNEKQALQGEREGLEETLRNLQARYEEEVLSREDAEGRLMEARKGADEAALARAELEKRIDSLMDEISFLKKVHEEEIAELQAQIQYAQISVEMDVTKPDLSAALKDIRAQYEKLAAKNMQNAEEWFKSRFTVLTESAAKNTDAVRAAKDEVSESRRLLKAKTLEIEACRGMNEALEKQLQELEDKQNADISAMQDTINKLENELRTTKSEMARYLKEYQDLLNVKMALDIEIAAYRKLLEGEETRLSFTSVGSITSGYSQSSQVFGRSAYGGLQTSSYLMSTRSFPSYYTSHVQEEQIEVEETIEAAKAEEAKDEPPSEGEAEEEEKDKEEAEEEEAAEEEEAAKEESEEAKEEEEGGEGEEGEETKEAEEEEKKVEGAGEEQAAKKKD
HTLV_LTR transactiv. [2]: 0.45 fold change

— patent publication US20120090043A1, “TARGETS FOR RETROVIRUS ASSOCIATED DISEASES” (priority 2009, published 2012)
